Patent US20240279281A1, “Peptide Inhibitors of Interleukin-23 Receptor” (Janssen Pharmaceutica NV, priority 2023, published 2024)
Starred links: 1 amine or outer side, 2 acyl side, 3 side chain; linkers in the order of their positions; H or OH if unused. Positions of bridges follow the written chain, without caps; N, C: chain ends. Non-standard residues stand in square brackets, D forms with d. 2Nal6(Ph4(NMorph)) = 2-amino-3-(6-(4-morpholinophenyl)naphthalen-2-yl)propanoic acid, O=C([C@H](Cc1ccc2cc(-c3ccc(N4CCOCC4)cc3)ccc2c1)N[*:1])[*:2]; TMAPF = 5-(4-(2-amino-2-carboxyethyl)phenoxy)-N,N,N-trimethylpentan-1-aminium, C[N+](C)(C)CCCCCOc1ccc(C[C@H](N[*:1])C(=O)[*:2])cc1; 6Br2Nal = 2-amino-3-(6-bromonaphthalen-2-yl)propanoic acid, O=C([C@H](Cc1ccc2cc(Br)ccc2c1)N[*:1])[*:2]; 6F2Nal = 2-amino-3-(6-fluoronaphthalen-2-yl)propanoic acid, O=C([C@H](Cc1ccc2cc(F)ccc2c1)N[*:1])[*:2]; Trp(7-(3-AcNH-Ph)) = CC(=O)Nc1cccc(-c2cccc3c(C[C@H](N)C(=O)O)c[nH]c23)c1; 2Nal(6-OH) = N[C@@H](Cc1ccc2cc(O)ccc2c1)C(=O)O; Trp(7-Me) = Cc1cccc2c(C[C@H](N)C(=O)O)c[nH]c12; AEF = NCCOc1ccc(C[C@H](N)C(=O)O)cc1; 3Pal = N[C@@H](Cc1cccnc1)C(=O)O; NMecPEG3a = not defined here; Pen = CC(C)(S)[C@H](N)C(=O)O; Thp = NC1(C(=O)O)CCOCC1; Sar = CNCC(=O)O

T1: interleukin-23 receptor (IL-23R) (UniProt Q5VWK5 24-629, limits assumed)
T1 sequence (looked up): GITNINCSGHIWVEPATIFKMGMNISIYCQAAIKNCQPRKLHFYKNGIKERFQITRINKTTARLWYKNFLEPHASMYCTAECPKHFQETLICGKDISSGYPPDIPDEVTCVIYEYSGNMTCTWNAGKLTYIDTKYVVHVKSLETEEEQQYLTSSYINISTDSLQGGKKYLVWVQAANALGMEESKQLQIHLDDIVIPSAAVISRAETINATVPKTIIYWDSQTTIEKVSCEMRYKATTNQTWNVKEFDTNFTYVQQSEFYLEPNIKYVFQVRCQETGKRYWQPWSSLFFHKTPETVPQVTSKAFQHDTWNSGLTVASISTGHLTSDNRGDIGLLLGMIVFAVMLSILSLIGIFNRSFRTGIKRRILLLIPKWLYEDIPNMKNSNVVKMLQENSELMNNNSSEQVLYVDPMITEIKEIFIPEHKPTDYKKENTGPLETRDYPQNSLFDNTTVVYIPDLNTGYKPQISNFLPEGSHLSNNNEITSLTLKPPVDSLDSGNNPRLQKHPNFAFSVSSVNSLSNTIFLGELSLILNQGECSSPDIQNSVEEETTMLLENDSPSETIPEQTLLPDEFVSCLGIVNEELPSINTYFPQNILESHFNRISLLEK


Target: T1, interleukin-23 receptor (IL-23R)
Assay: cell-based or functional assay

IL23R Reporter Assay IC50 [µM]	Binder
< 0.01	Ac-[dR][Pen]NT[Trp(7-Me)]K(Ac)[Pen][TMAPF][2Nal(6-OH)][Thp]EN[3Pal][Sar]-NH2 (disulfide 2-7 (inferred)) [SEQ ID NO: 59]
< 0.01	Ac-[dR][Pen]NT[Trp(7-(3-AcNH-Ph))]K(Ac)[Pen][AEF][2Nal(6-OH)][Thp]EN[3Pal][Sar]-NH2 (disulfide 2-7 (inferred)) [SEQ ID NO: 287]
< 0.01	Ac-[dR][Pen]NT[Trp(7-Me)]K(Ac)[Pen][AEF][6F2Nal][Thp]EN[3Pal][Sar]-NH2 (disulfide 2-7 (inferred)) [SEQ ID NO: 407]
< 0.01	Ac-[dR][Pen]NT[Trp(7-Me)]K(Ac)[Pen][AEF][2Nal(6-OH)][Thp]EN[3Pal][Sar]-NH2 (disulfide 2-7 (inferred)) [SEQ ID NO: 442]
< 0.01	cPEG3aCO-[Pen]NT[Trp(7-Me)]K(NMecPEG3a)[Pen][AEF][2Nal(6-OH)][Thp]EN[3Pal][Sar]-NH2 (disulfide 1-6 (inferred); not fully specified; printed as cPEG3aCO-Pen(3)-N-T-7MeW-K(NMecPEG3a)-Pen(3)-AEF-6OH2Nal-THP-E-N-3Pya-Sar-CONH2; reading uncertain) [SEQ ID NO: 319]
≥ 0.1	Ac-[dR][Pen]NT[Trp(7-Me)]K(Ac)[Pen][AEF][6Br2Nal][Thp]EN[Thp]-NH2 (disulfide 2-7 (inferred)) [SEQ ID NO: 444]
< 0.01	Ac-X[Pen]NT[Trp(7-Me)]K(Ac)[Pen][AEF][2Nal(6-OH)][Thp]EN[3Pal][Sar]-NH2 (disulfide 2-7 (inferred); not fully specified (residue 1); printed as MeCO-k(d)-Pen(3)-N-T-7MeW-K(Ac)-Pen(3)-AEF-6OH2Nal-THP-E-N-3Pya-Sar-CONH2) [SEQ ID NO: 349]
≥ 0.1	Ac-[dR][Pen]NT[Trp(7-Me)]K(Ac)[Pen][AEF][2Nal6(Ph4(NMorph))][Thp]EN[Thp]-NH2 (disulfide 2-7 (inferred)) [SEQ ID NO: 432]
< 0.01	Ac-[Pen]NT[Trp(7-Me)]K(Ac)[Pen][AEF][2Nal(6-OH)][Thp]EN[3Pal][Sar]-NH2 (disulfide 1-6 (inferred)) [SEQ ID NO: 428]
